Measured values as given in patent publication US10100129B2, “Antibodies against CD73 and uses thereof” (BRISTOL-MYERS SQUIBB COMPANY, priority 2014, dated 2018).

T1: CD32a-H131 (FcgRIIa-H131) (Homo sapiens, UniProt P12318)
T1 sequence (P12318 34-217 limits assumed): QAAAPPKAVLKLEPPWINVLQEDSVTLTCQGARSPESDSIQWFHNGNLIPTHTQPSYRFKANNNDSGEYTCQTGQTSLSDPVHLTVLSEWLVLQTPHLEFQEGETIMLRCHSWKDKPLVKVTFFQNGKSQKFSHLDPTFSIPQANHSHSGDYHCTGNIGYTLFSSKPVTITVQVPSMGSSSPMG

T2: CD32b (FcgRIIb) (Homo sapiens, UniProt P31994)
T2 sequence (P31994 43-310): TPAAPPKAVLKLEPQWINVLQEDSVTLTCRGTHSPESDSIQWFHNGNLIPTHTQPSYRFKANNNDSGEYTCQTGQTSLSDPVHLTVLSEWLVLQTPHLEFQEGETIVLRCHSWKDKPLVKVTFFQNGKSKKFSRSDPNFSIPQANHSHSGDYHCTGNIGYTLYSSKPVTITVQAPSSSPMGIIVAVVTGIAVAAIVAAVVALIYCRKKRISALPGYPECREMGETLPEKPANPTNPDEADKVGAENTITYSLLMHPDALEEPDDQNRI

T3: CD32a-R131 (FcgRIIa-R131) (Homo sapiens, UniProt P12318, H167R)
T3 sequence (P12318 34-217 H167R limits assumed): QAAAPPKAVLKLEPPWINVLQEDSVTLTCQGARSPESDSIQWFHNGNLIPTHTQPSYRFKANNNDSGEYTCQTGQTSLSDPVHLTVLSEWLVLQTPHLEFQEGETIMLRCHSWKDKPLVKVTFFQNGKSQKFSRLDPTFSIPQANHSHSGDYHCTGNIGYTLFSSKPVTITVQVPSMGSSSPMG


Key:
[1] = target: T1, CD32a-H131 (FcgRIIa-H131); assay: SPR binding to FcgR-his: CD32a-H131; conditions: 1 μM antibody, anti-his Fab captured FcgR-his
Method: (§1) The binding of antibodies to Fc gamma receptors (FcγRs or FcgRs) was studied using biosensor technologies including Biacore surface plasmon resonance (SPR) and Fortebio Biolayer Interferometry (BLI). SPR studies were performed on a Biacore T100 instrument (GE Healthcare) at 25° C. The Fab fragment from a murine anti-6×His antibody was immobilized on a CM5 sensor chip using EDC/NHS to a density of ˜3000 RU. Various his-tagged FcgRs (7 ug/ml) were captured via the C-terminal his-tag using a contact time of 30 s at 10 ul/min, and the binding of 1.0 μM antibody was evaluated in a running buffer of 10 mM NaPO4, 130 mM NaCl, 0.05% p20 (PBS-T) pH 7.1. FcgRs used for these experiments included CD64 (FcgRI), CD32a-H131 (FcgRIIa-H131), CD32a-R131 (FcgRIIa-R131), CD32b (FcgRIIb), CD16a-V158 (FcgRIIIa-V158), CD16b-NA1 (FcgRIIIb-NA1), and CD16B-NA2 (FcgRIIIb-NA2). BLI experiments were performed on a Fortebio Octet RED instrument (Pall, Fortebio) at 25° C. in 10 mM NaPO4, 130 mM NaCl, 0.05% p20 (PBS-T) pH 7.1. Antibodies were captured out of undiluted expression supernatants on protein A coated sensors, followed by the binding of 1 μM hCD32a-H131, hCD32a-R131, hCD32b, hCD16a-V158, or 0.1 μM hCD64 analytes.

CD32b (FcgRIIb) = target: T2, CD32b (FcgRIIb); assay: SPR binding to FcgR-his: CD32b; conditions: 1 μM antibody, anti-his Fab captured FcgR-his
Method: as §1

CD64 (FcgRI) = CD64 (FcgRI) (Homo sapiens, UniProt P12314); assay: SPR binding of 1.0 μM antibody to anti-his Fab captured FcgR-his: CD64
Chain of CD64 (FcgRI) (P12314 16-374): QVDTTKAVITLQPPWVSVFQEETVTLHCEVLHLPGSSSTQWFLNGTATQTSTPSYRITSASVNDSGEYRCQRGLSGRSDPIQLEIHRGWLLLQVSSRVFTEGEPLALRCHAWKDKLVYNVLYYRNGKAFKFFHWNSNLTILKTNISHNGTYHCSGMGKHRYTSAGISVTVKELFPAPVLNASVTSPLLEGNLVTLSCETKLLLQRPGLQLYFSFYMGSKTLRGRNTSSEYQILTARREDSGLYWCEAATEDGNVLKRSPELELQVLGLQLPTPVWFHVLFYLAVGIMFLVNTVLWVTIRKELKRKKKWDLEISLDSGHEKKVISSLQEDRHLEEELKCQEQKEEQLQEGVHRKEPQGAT
Method: as §1

[2] = target: T3, CD32a-R131 (FcgRIIa-R131); assay: SPR binding to FcgR-his: CD32a-R131; conditions: 1 μM antibody, anti-his Fab captured FcgR-his
Method: as §1

CD16B-NA2 (FcgRIIIb-NA2) = CD16B-NA2 (FcgRIIIb-NA2) (Homo sapiens, UniProt O75015); assay: SPR binding to FcgR-his: CD16B-NA2; conditions: 1 μM antibody, anti-his Fab captured FcgR-his
Chain of CD16B-NA2 (FcgRIIIb-NA2) (O75015 17-200 limits assumed): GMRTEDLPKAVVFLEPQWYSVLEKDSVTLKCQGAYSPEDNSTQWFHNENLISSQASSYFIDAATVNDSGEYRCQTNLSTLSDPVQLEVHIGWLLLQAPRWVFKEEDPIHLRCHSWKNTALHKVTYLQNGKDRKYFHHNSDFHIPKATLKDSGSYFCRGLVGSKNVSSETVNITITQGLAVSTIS
Method: as §1

[3] = target: CD16a-V158 (FcgRIIIa-V158) (Homo sapiens, UniProt P08637, F176V); assay: SPR binding to FcgR-his: CD16a-V158; conditions: 1 μM antibody, anti-his Fab captured FcgR-his
Chain of CD16a-V158 (FcgRIIIa-V158) (P08637 17-208 F176V limits assumed): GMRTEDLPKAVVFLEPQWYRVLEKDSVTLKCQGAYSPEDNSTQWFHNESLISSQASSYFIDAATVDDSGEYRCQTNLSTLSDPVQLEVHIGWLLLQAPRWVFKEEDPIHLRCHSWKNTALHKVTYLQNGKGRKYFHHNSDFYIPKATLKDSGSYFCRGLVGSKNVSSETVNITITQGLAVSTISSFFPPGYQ
Method: as §1

Row | % Rmax, binding to hCD32a-H131 [1] | % Rmax, binding to hCD32b (CD32b (FcgRIIb)) | % Rmax, binding to hCD64 (CD64 (FcgRI)) | % Rmax, binding to hCD32a-R131 [2] | % Rmax, binding to hCD16B-NA2 (CD16B-NA2 (FcgRIIIb-NA2)) | % Rmax, binding to hCD16a-V158 [3] | Molecule
1 | 39% | −2% | −2% | 4% | −2% | 0% | mAb13-IgG2.5 (protein, left off: another chain or arm of the molecule) constant: ASTKGPSVFPLAPSSRSTSESTAALGCLVKDYFPEPVTVSWNSGALTSGVHTFPAVLQSSGLYSLSSVVTVPSSNFGTQTYTCNVDHKPSNTKVDKTVERKCCVECPPCPAPPVAGPSVFLFPPKPKDTLMISRTPEVTCVVVDVSHEDPEVQFNWYVDGVEVHNAKTKPREEQFNSTFRVVSVLTVVHQDWLNGKEYKCKVSNKGLPAPIEKTISKTKGQPREPQVYTLPPSREEMTKNQVSLTCLVKGFYPSDIAVEWESNGQPENNYKTTPPMLDSDGSFFLYSKLTVDKSRWQQGNVFSCSVMHEALHNHYTQKSLSLSPGK
2 | 76% | 77% | 77% | 79% | 10% | 33% | mAb8-IgG2.5G1-AY-V27 (protein, left off: another chain or arm of the molecule) constant: ASTKGPSVFPLAPSSRSTSESTAALGCLVKDYFPEPVTVSWNSGALTSGVHTFPAVLQSSGLYSLSSVVTVPSSNFGTQTYTCNVDHKPSNTKVDKTVERKCCVECPPCPAPELLGGPSVFLFPPKPKDTLMISRTPEVTCVVVDVEHEDPEVKFNWYVDGVEVHNAKTKPREEQYNSTYRVVSVLTVLHQDWLNGKEYKCKVSNKALPAPIEKTISKAKGQPREPQVYTLPPSREEMTKNQVSLTCLVKGFYPSDIAVEWESNGQPENNYKTTPPVLDSDGSFFLYSKLTVDKSRWQQGNVFSCSVMHEALHNHYTQKSLSLSPGK

More lines, now with the values behind:

Row | Molecule | % Rmax, binding to hCD32a-H131 [1] | % Rmax, binding to hCD32b (CD32b (FcgRIIb)) | % Rmax, binding to hCD64 (CD64 (FcgRI)) | % Rmax, binding to hCD32a-R131 [2] | % Rmax, binding to hCD16B-NA2 (CD16B-NA2 (FcgRIIIb-NA2)) | % Rmax, binding to hCD16a-V158 [3]
3 | mAb7-IgG2.3G1-AY-V27 (protein, left off: another chain or arm of the molecule) constant: ASTKGPSVFPLAPCSRSTSESTAALGCLVKDYFPEPVTVSWNSGALTSGVHTFPAVLQSSGLYSLSSVVTVPSSNFGTQTYTCNVDHKPSNTKVDKTVERKSCVECPPCPAPELLGGPSVFLFPPKPKDTLMISRTPEVTCVVVDVEHEDPEVKFNWYVDGVEVHNAKTKPREEQYNSTYRVVSVLTVLHQDWLNGKEYKCKVSNKALPAPIEKTISKAKGQPREPQVYTLPPSREEMTKNQVSLTCLVKGFYPSDIAVEWESNGQPENNYKTTPPVLDSDGSFFLYSKLTVDKSRWQQGNVFSCSVMHEALHNHYTQKSLSLSPGK | 68% | 76% | 84% | 92% | 7% | 26%
4 | mAb7-IgG2.5G1-AY-V27 (protein, left off: another chain or arm of the molecule) constant: ASTKGPSVFPLAPSSRSTSESTAALGCLVKDYFPEPVTVSWNSGALTSGVHTFPAVLQSSGLYSLSSVVTVPSSNFGTQTYTCNVDHKPSNTKVDKTVERKCCVECPPCPAPELLGGPSVFLFPPKPKDTLMISRTPEVTCVVVDVEHEDPEVKFNWYVDGVEVHNAKTKPREEQYNSTYRVVSVLTVLHQDWLNGKEYKCKVSNKALPAPIEKTISKAKGQPREPQVYTLPPSREEMTKNQVSLTCLVKGFYPSDIAVEWESNGQPENNYKTTPPVLDSDGSFFLYSKLTVDKSRWQQGNVFSCSVMHEALHNHYTQKSLSLSPGK | 74% | 84% | 81% | 89% | 9% | 32%
